Assays:
Details in all cases: both partners purified
[1] = target: T1, Gelatin-binding domain of human plasma fibronectin (human); test: SPR
T1 construct: also called GBD; source: bought: Sigma-Aldrich

[2] = target: T1, Gelatin-binding domain of human plasma …; test: SEC-MALS; mixtures of Lig protein and GBD on Superose 6, 20 mM HEPES, 150 mM NaCl, pH 7.5
[3] = target: T1, Gelatin-binding domain of human plasma …; test: ITC; GBD in the cell (1 ml), Lig protein in the syringe (250 µl), 25 injections of 10 µl, 25°C, Tris buffer with 100 µM CaCl2; independent binding model
[4] = target: T1, Gelatin-binding domain of human plasma …; test: as above; remark: listed apart in the source
[5] = target: T1, Gelatin-binding domain of human plasma …; test: ELISA

Binder | koff [1] | kon [1] | stoichiometry N [2] | Kd [3] | dH [3] | stoichiometry N [3] | Kd [4] | dH [4] | stoichiometry N [4] | Kd [5]
LigAVar7'-8 (domain or fragment, biotin (in the ELISA)) LTVSNTNAKRGLGSTLKQGTVKVTASMGGIEDSVDFTVTQATLTSIEVSPTRASIAKGMTQKFTATGIFTDHSKKNITEQVTWKSSSKALSMLNAPGEEGTGKAIAVGKHYYYCNLRKTFRENRYYRYSRNSYFN | 0.00501 s⁻¹ | 750 M⁻¹ s⁻¹ | 0.95 GBD: Lig | 6750 ± 110 nM | -28.6 ± 5.14 kcal/mol | 1.01 ± 0.04 Lig: GBD | – | – | – | –
LigAVar10 (domain or fragment, biotin (in the ELISA)) LSVTAAELIEIVLDPTSSHKAKGLTENFKATGVFTDNSTKDITDQVTWKSSKTAYAKISNATGSKRVVNAISKGTSHISATLGSISSANATFQVTPAKVV | 0.00506 s⁻¹ | 1190 M⁻¹ s⁻¹ | – | – | – | – | – | – | – | –
Histidine-tagged LigBCen2R (domain or fragment) TATYNSISENIDITVSAATLSSISISPINTNINATVSKQFFAVGTYSDGTKADLTSSVTWSSSNKSQAKVSNASKTKGLVTGIASGNSIITATYGSVSGNTILTVNKTDTI | 0.00923 s⁻¹ | 4830 M⁻¹ s⁻¹ | – | – | – | – | 1880 ± 90 nM | -29.2 ± 3.58 kcal/mol | 0.995 ± 0.01 | –
LigBCen7'-12 (domain or fragment, biotin (in the ELISA)) AEITNTSGSKGITNTLTPGSSEISAALGSIKSSKVILKVTPAQLISIAVTPINPSVAKGLIRQFKATGTYTDHSVQDVTALATWSSSNPRKAMVNNVTGSVTTVATGNTNIKATIDSISGSSVLNVTPALLTSIEITPTINSITHGLTKQFKATGIFSDKSTQNLTQLVTWISSDPSKIEIENTSGKKGIATASKLGSSNIKAVYKFIQSSPIPITVTDLKLKSITISPSSSSIAKGLTQQFKAIGTFIDGSEQEITNLVTWYSSKSDVAPINNAANEKGLATALSIGSSDIYAIYNSISSNKINFNVSAATLDSIKINPVNNNIAKGLTQQYTALGVYSDSTIQDISDSVTWSSSNSSSISISNSTETKGKATALQIGNSKITATYNSISENIDITVSAATLSSISISPINTNINTTVSKQFFAVGTYSDGTKADLTSSVTWSSSNQSQAKVSNASETKGLVTGIASGNPTIIATYGSVSGNTILTVNKTDTI | – | – | 3.03 GBD: Lig | 49 ± 2 nM | -95.7 ± 3.85 kcal/mol | 0.33 ± 0.02 Lig: GBD | – | – | – | 49 ± 7 nM
LigAVar13 (domain or fragment, biotin (in the ELISA)) ITISLSSISKTKGSTHQFKATGKFENGAEIDLTELVTWSSSNPTVVSISNVDDERGLATALSVGSSKISVDYNSISSSIDFEVTPEILASIKTEP | 0.0053 s⁻¹ | 510 M⁻¹ s⁻¹ | – | – | – | – | – | – | – | –
LigAVar11 (domain or fragment, biotin (in the ELISA)) FQVTPAKVVSIEVIPNNISFAKGNSYQFKATGIYTDHSEADITEQVTWSSSNPKIASVENTFGSAGLVNTTNIGSTNITAKLSDTVSGASVLNVTPALLRY | 0.00599 s⁻¹ | 1190 M⁻¹ s⁻¹ | – | – | – | – | – | – | – | –

From PMC2892007, “The Terminal Immunoglobulin-Like Repeats of LigA and LigB of Leptospira Enhance Their Binding to Gelatin Binding Domain of Fibronectin and Host Cells” (PLoS ONE, 2010)
